Measured values: US10456465B2, “Compositions, kits, and methods for the diagnosis prognosis, monitoring, treatment and modulation of post-transplant lymphoproliferative disorders and hypoxia associated angiogenesis disorders using galectin-1” (Dana-Farber Cancer Institute, Inc., priority 2009, dated 2019)

Molecular target: T1, endogenous Gal1 (Homo sapiens, UniProt P09382)
T1 construct: endogenous Gal1 from HL cell lines; endogenous in cells; host or cells: Hodgkin lymphoma cell line (L428)
Assay: Reactivity with endogenous Gal1 from Hodgkin lymphoma cell line (immunoblot)
Format: binding
Settings: Hodgkin lymphoma cell line (L428); immunoblots
Excerpt: Anti-human Gal1 mAbs were obtained by immunizing B6-Cg-Tg (BCL2)22Wehi-J mice (Jackson Labs, Bar Harbor, Me.) with recombinant human glutathione-s-transferase (GST)-Gal1, generating anti-Gal1 hybridomas with standard methods and purifying the Gal1 monoclonal antibody and class-matched IgG2bλ, control by affinity chromatography. […] A previously described anti-Gal1 polyclonal antibody (Juszczynski et al. (2007) Proc Natl Acad Sci USA 104:13134-9) was used as a positive control in all assays.
Expression of Gal1 protein in HL, LCL and DLBCL cell lines was determined by Western blot (WB) using the αGal1 monoclonal antibody (8F4F8G7) or the previously described polyclonal antiserum (Juszczynski et al. (2007) Proc Natl Acad Sci USA 104:13134-9). Knock-down of LMP2A was confirmed by WB using anαLMP2a antibody (Abcam, Cambridge, Mass.). Activity of the AP-1 components, cJun and JunB, in the HL cell line L428 and the LCLs RIC and NOR were interrogated by WB using αphospho(Ser63)-cJun (Cell Signaling Technology), αcJun (Cell Signaling Technology, Danvers, Mass.), αphospho(Ser259)-JunB (Santa Cruz Biotechnology, Inc. Santa Cruz, Calif.) and αJunB (Cell Signaling Technology). WBs were normalized using αβ-actin antibody (Sigma Aldrich, St. Louis, Mo.) to determine β-actin expression as a loading control.

T1 sequence (P09382 whole entry): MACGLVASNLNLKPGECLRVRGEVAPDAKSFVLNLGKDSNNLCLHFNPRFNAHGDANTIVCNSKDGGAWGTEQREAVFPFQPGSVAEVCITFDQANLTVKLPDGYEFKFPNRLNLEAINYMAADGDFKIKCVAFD

B1: anti-Gal1 monoclonal antibody 8F4F8G7 (antibody, V domains shown)
VH: EVQLQQSVAEFVRPGASVRLSCTASGFNIKNTYIHWVRQRPEQGLEWIGKIDPANGNTKYVPEFQGKATMTADTSSNTVYLHLSSLTSEDTAIYYCVDGYYGWYFAVWGTGTTVTVSS
VL: QAVVTQESALTTSPGETVTLTCRSSTGAVTTSNYANWVQEKPDHLFTGLIGATNNRAPGVPARFSGSLIGDKAVLTITGAQTEDEAIYFCALWYRNHFIFGSGTKVTVL
notes: Murine hybridoma mAb (deposit PTA-10535), lambda light chain; also called 14-19 8F4-F8-G7; clone 8F4.8F.67
B1 was tested. Which “reactivity with endogenous Gal1” value did it give?
The value was “specifically detected”.
